pKd: −log10 of the molar value.
Assays:
[1] = target: HLA-B*27:03; experiment: IEDB peptide-MHC binding, purified MHC/competitive/fluorescence; filed as Kd, often an IC50 or EC50 that approximates it; ≥ and ≤ were set here for values at or beyond the usual limits of such assays
[2] = target: HLA-A*03:01; experiment: as above
[3] = target: HLA-B*57:01; experiment: as above
[4] = target: HLA-A*69:01; experiment: as above
[5] = target: HLA-B*51:01; experiment: as above
[6] = target: HLA-A*29:02; experiment: as above
[7] = target: HLA-A*26:01; experiment: as above
[8] = target: HLA-B*39:01; experiment: as above
[9] = target: HLA-A*24:03; experiment: as above; settings: source organism: Rickettsia sibirica 246
[10] = target: HLA-A*02:16; experiment: as above
[11] = target: HLA-A*02:19; experiment: as above
[12] = target: HLA-A*68:02; experiment: as above
[13] = target: HLA-A*02:01; experiment: as above
[14] = target: HLA-A*02:12; experiment: as above
[15] = target: HLA-B*18:01; experiment: as above
[16] = target: HLA-A*31:01; experiment: IEDB peptide-MHC binding, purified MHC/direct/fluorescence; filed as Kd, often an IC50 or EC50 that approximates it; ≥ and ≤ were set here for values at or beyond the usual limits of such assays
[17] = target: HLA-A*03:01; experiment: as above
[18] = target: HLA-A*69:01; experiment: as above
[19] = target: HLA-A*30:01; experiment: as above; settings: source organism: Giardia lamblia ATCC 50803
[20] = target: HLA-A*11:01; experiment: as above
[21] = target: HLA-A*26:01; experiment: as above; settings: source organism: Giardia lamblia ATCC 50803
[22] = target: HLA-B*27:05; experiment: as above
[23] = target: HLA-B*08:01; experiment: as above; settings: source organism: Giardia lamblia ATCC 50803
[24] = target: HLA-A*24:03; experiment: as above; settings: source organism: Giardia lamblia ATCC 50803
[25] = target: HLA-B*44:02; experiment: as above
[26] = target: HLA-B*07:02; experiment: as above
[27] = target: HLA-B*40:01; experiment: as above
[28] = target: HLA-A*02:01; experiment: as above
[29] = target: HLA-B*15:01; experiment: as above
[30] = target: HLA-B*35:01; experiment: as above; settings: source organism: Giardia lamblia ATCC 50803
[31] = target: HLA-A*01:01; experiment: as above
[32] = target: HLA-B*58:01; experiment: as above
[33] = target: HLA-A*02:03; experiment: IEDB peptide-MHC binding, purified MHC/competitive/fluorescence; filed as Kd, often an IC50 or EC50 that approximates it; ≥ and ≤ were set here for values at or beyond the usual limits of such assays; settings: source organism: Escherichia coli B171
[34] = target: HLA-A*24:02; experiment: IEDB peptide-MHC binding, purified MHC/direct/fluorescence; filed as Kd, often an IC50 or EC50 that approximates it; ≥ and ≤ were set here for values at or beyond the usual limits of such assays; settings: source organism: Escherichia coli O157:H7
[35] = target: HLA-B*46:01; experiment: as above; settings: source organism: Escherichia coli O157:H7
[36] = target: HLA-B*18:01; experiment: as above; settings: source organism: Escherichia coli O157:H7
[37] = source organism: Rickettsia sibirica 246
[38] = source organism: Giardia lamblia ATCC 50803
[39] = source organism: Escherichia coli B171
[40] = source organism: Escherichia coli O157:H7

AMYDPQTYY
pKd [1, 37]: ≤ 4.70 | pKd [2, 37]: 7.85 | pKd [3, 37]: ≤ 4.70 | pKd [4, 37]: ≤ 4.70 | pKd [5, 37]: ≤ 4.70 | pKd [6, 37]: 9.70 | pKd [7, 37]: ≤ 4.70 | pKd [8, 37]: ≤ 4.70 | pKd [9]: ≤ 4.70 | pKd [10, 37]: ≤ 4.70 | pKd [11, 37]: ≤ 4.70 | pKd [12, 37]: ≤ 4.70 | pKd [13, 37]: ≤ 4.70 | pKd [14, 37]: ≤ 4.70 | pKd [15, 37]: ≤ 4.70

IPRQWHPFA
pKd [16, 38]: ≤ 4.70 | pKd [17, 38]: ≤ 4.70 | pKd [18, 38]: ≤ 4.70 | pKd [19]: 5.33 | pKd [20, 38]: ≤ 4.70 | pKd [21]: ≤ 4.70 | pKd [22, 38]: ≤ 4.70 | pKd [23]: 5.42 | pKd [24]: 4.97 | pKd [25, 38]: ≤ 4.70 | pKd [26, 38]: 6.81 | pKd [27, 38]: ≤ 4.70 | pKd [28, 38]: ≤ 4.70 | pKd [29, 38]: ≤ 4.70 | pKd [30]: 5.96 | pKd [31, 38]: ≤ 4.70 | pKd [32, 38]: ≤ 4.70

KAIIDTAQF
pKd [1, 39]: ≤ 4.70 | pKd [2, 39]: ≤ 4.70 | pKd [3, 39]: 6.68 | pKd [4, 39]: ≤ 4.70 | pKd [5, 39]: ≤ 4.70 | pKd [6, 39]: ≤ 4.70 | pKd [7, 39]: ≤ 4.70 | pKd [8, 39]: ≤ 4.70 | pKd [33]: ≤ 4.70 | pKd [10, 39]: ≤ 4.70 | pKd [11, 39]: ≤ 4.70 | pKd [12, 39]: ≤ 4.70 | pKd [13, 39]: ≤ 4.70 | pKd [14, 39]: ≤ 4.70 | pKd [15, 39]: ≤ 4.70

LDKGKLWHL
pKd [16, 40]: ≤ 4.70 | pKd [17, 40]: ≤ 4.70 | pKd [18, 40]: ≤ 4.70 | pKd [34]: ≤ 4.70 | pKd [20, 40]: ≤ 4.70 | pKd [22, 40]: ≤ 4.70 | pKd [25, 40]: ≤ 4.70 | pKd [26, 40]: ≤ 4.70 | pKd [27, 40]: ≤ 4.70 | pKd [28, 40]: ≤ 4.70 | pKd [29, 40]: ≤ 4.70 | pKd [35]: ≤ 4.70 | pKd [36]: ≤ 4.70 | pKd [31, 40]: ≤ 4.70 | pKd [32, 40]: ≤ 4.70

From the Immune Epitope Database (IEDB)
